Article PMC9482650, “Quantitative fragmentomics allow affinity mapping of interactomes” (Nature Communications, 2022)

T1: APBA2_2, Q99767
T1 sequence (Q99767 654-744, limits assumed, looked up): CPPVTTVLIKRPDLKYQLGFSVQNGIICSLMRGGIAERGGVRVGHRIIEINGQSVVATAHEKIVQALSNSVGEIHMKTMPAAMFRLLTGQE

T2: TJP3_3, O95049
T2 sequence (O95049 375-456, limits assumed, looked up): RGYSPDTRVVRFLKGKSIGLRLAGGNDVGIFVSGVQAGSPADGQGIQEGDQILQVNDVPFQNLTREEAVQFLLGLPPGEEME

T3: CARD11, Q9BXL7
T3 sequence (Q9BXL7 662-765, limits assumed, looked up): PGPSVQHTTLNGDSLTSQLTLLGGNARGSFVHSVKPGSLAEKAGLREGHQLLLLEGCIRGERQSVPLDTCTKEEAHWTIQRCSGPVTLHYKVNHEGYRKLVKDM

T4: ARHGAP21, Q5T5U3
T4 sequence (Q5T5U3 45-169, limits assumed, looked up): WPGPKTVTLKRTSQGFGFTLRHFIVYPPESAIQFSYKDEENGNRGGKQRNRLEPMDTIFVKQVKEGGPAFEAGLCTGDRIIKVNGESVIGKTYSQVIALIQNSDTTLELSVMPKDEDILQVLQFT

T5: DFNB31_3, Q9P202
T5 sequence (Q9P202 811-907, limits assumed, looked up): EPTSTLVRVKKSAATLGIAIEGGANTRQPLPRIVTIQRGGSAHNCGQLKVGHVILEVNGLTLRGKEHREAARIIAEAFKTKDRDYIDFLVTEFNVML

T6: DFNB31_1, Q9P202
T6 sequence (Q9P202 135-233, limits assumed, looked up): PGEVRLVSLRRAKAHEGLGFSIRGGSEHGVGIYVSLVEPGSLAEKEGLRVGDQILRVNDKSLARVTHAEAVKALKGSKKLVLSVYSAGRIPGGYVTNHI

T7: SNTG1, Q9NSN8
T7 sequence (Q9NSN8 52-150, limits assumed, looked up): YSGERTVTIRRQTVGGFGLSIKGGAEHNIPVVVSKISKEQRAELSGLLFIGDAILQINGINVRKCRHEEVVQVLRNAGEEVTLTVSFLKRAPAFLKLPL

T8: PARD3B_1, Q8TEW8
T8 sequence (Q8TEW8 196-299, limits assumed, looked up): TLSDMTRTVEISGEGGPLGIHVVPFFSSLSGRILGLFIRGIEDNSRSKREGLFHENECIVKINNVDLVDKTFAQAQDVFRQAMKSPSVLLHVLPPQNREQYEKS

T9: SNTA1, Q13424
T9 sequence (Q13424 82-180, limits assumed, looked up): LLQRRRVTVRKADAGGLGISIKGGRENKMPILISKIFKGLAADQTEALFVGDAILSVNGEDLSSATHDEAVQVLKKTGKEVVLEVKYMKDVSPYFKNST

T10: SIPA1L2, Q9P2F8
T10 sequence (Q9P2F8 945-1036, limits assumed, looked up): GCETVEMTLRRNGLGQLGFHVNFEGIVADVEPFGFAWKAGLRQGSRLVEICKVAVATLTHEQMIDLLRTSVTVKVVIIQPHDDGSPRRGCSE

T11: HTRA3, P83110
T11 sequence (P83110 354-453, limits assumed, looked up): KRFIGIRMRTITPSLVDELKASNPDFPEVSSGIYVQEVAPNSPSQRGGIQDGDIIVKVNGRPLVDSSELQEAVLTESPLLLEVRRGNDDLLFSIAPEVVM

T12: PDZD7_3, Q9H5P4
T12 sequence (Q9H5P4 857-944, limits assumed, looked up): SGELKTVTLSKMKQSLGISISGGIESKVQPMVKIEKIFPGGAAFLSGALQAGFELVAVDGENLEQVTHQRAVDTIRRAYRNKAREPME

T13: FRMPD1, Q5SYB0
T13 sequence (Q5SYB0 52-145, limits assumed, looked up): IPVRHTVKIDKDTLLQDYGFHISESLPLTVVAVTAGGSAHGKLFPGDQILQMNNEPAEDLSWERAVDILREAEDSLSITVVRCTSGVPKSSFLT


molecular target: GRIP2_7, Q9C0E4; assay: holdup assay; parameters: key: below the threshold = too weak to quantify, mostly under pKd 3.1 to 4; details: plain residues with an end cap or a label only (N-terminal biotin on a linker: ado-ado)
Sequence (Q9C0E4 934-1023): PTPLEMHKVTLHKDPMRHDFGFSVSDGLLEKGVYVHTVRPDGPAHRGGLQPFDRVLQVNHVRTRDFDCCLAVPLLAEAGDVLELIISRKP

| pKd | Binder |
| --- | --- |
| below the threshold | GSQSQVETEA [FKBP4, Q02790] |
| below the threshold | SRPHTNETSL [MCC, P23508] |

molecular target: T1, APBA2_2, Q99767; assay: holdup assay; parameters: key: below the threshold = too weak to quantify, mostly under pKd 3.1 to 4; details: plain residues with an end cap or a label only (N-terminal biotin on a linker: ado-ado)

| pKd | Binder |
| --- | --- |
| below the threshold | GSQSQVETEA [FKBP4, Q02790] |
| below the threshold | SRPHTNETSL [MCC, P23508] |

molecular target: T2, TJP3_3, O95049; assay: holdup assay; parameters: key: below the threshold = too weak to quantify, mostly under pKd 3.1 to 4; details: plain residues with an end cap or a label only (N-terminal biotin on a linker: ado-ado)

| pKd | Binder |
| --- | --- |
| below the threshold | GSQSQVETEA [FKBP4, Q02790] |
| below the threshold | SRPHTNETSL [MCC, P23508] |

molecular target: T3, CARD11, Q9BXL7; assay: holdup assay; parameters: key: below the threshold = too weak to quantify, mostly under pKd 3.1 to 4; details: plain residues with an end cap or a label only (N-terminal biotin on a linker: ado-ado)

| pKd | Binder |
| --- | --- |
| below the threshold | GSQSQVETEA [FKBP4, Q02790] |
| below the threshold | SRPHTNETSL [MCC, P23508] |

molecular target: SCRIB_3, Q14160; assay: holdup assay; parameters: key: below the threshold = too weak to quantify, mostly under pKd 3.1 to 4; details: plain residues with an end cap or a label only (N-terminal biotin on a linker: ado-ado)
Sequence (Q14160 999-1103): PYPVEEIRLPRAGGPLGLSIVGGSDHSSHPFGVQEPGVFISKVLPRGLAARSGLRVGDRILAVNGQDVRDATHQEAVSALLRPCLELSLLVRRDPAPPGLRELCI

| pKd | Binder |
| --- | --- |
| 4.04 | GSQSQVETEA [FKBP4, Q02790] |
| 5.13 | SRPHTNETSL [MCC, P23508] |

molecular target: T4, ARHGAP21, Q5T5U3; assay: holdup assay; parameters: key: below the threshold = too weak to quantify, mostly under pKd 3.1 to 4; details: plain residues with an end cap or a label only (N-terminal biotin on a linker: ado-ado)

| pKd | Binder |
| --- | --- |
| below the threshold | GSQSQVETEA [FKBP4, Q02790] |
| 4.01 | SRPHTNETSL [MCC, P23508] |

molecular target: T5, DFNB31_3, Q9P202; assay: holdup assay; parameters: key: below the threshold = too weak to quantify, mostly under pKd 3.1 to 4; details: plain residues with an end cap or a label only (N-terminal biotin on a linker: ado-ado)

| pKd | Binder |
| --- | --- |
| below the threshold | GSQSQVETEA [FKBP4, Q02790] |
| below the threshold | SRPHTNETSL [MCC, P23508] |

molecular target: T6, DFNB31_1, Q9P202; assay: holdup assay; parameters: key: below the threshold = too weak to quantify, mostly under pKd 3.1 to 4; details: plain residues with an end cap or a label only (N-terminal biotin on a linker: ado-ado)

| pKd | Binder |
| --- | --- |
| below the threshold | GSQSQVETEA [FKBP4, Q02790] |
| 4.28 | SRPHTNETSL [MCC, P23508] |

molecular target: LIMK2, P53671; assay: holdup assay; parameters: key: below the threshold = too weak to quantify, mostly under pKd 3.1 to 4; details: plain residues with an end cap or a label only (N-terminal biotin on a linker: ado-ado)
Sequence (P53671 143-248): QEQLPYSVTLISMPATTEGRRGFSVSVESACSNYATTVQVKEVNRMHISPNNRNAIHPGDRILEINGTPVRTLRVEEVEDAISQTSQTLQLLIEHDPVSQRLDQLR

| pKd | Binder |
| --- | --- |
| below the threshold | GSQSQVETEA [FKBP4, Q02790] |
| below the threshold | SRPHTNETSL [MCC, P23508] |

molecular target: GORASP1, Q9BQQ3; assay: holdup assay; parameters: key: below the threshold = too weak to quantify, mostly under pKd 3.1 to 4; details: plain residues with an end cap or a label only (N-terminal biotin on a linker: ado-ado)
Sequence (Q9BQQ3 1-208): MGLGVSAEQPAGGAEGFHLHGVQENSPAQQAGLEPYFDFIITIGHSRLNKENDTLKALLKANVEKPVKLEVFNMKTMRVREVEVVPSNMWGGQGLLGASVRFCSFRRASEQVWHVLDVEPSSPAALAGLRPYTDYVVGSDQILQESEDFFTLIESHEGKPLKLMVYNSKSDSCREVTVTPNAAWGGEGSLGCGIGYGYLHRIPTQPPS

| pKd | Binder |
| --- | --- |
| below the threshold | GSQSQVETEA [FKBP4, Q02790] |
| below the threshold | SRPHTNETSL [MCC, P23508] |

molecular target: T7, SNTG1, Q9NSN8; assay: holdup assay; parameters: key: below the threshold = too weak to quantify, mostly under pKd 3.1 to 4; details: plain residues with an end cap or a label only (N-terminal biotin on a linker: ado-ado)

| pKd | Binder |
| --- | --- |
| below the threshold | GSQSQVETEA [FKBP4, Q02790] |
| 3.93 | SRPHTNETSL [MCC, P23508] |

molecular target: SCRIB_1, Q14160; assay: holdup assay; parameters: key: below the threshold = too weak to quantify, mostly under pKd 3.1 to 4; details: plain residues with an end cap or a label only (N-terminal biotin on a linker: ado-ado)
Sequence (Q14160 718-814): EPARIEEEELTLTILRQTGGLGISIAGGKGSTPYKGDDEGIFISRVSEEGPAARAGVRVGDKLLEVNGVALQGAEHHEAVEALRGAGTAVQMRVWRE

| pKd | Binder |
| --- | --- |
| below the threshold | GSQSQVETEA [FKBP4, Q02790] |
| 5.26 | SRPHTNETSL [MCC, P23508] |

molecular target: PARD3_3, Q8TEW0; assay: holdup assay; parameters: key: below the threshold = too weak to quantify, mostly under pKd 3.1 to 4; details: plain residues with an end cap or a label only (N-terminal biotin on a linker: ado-ado)
Sequence (Q8TEW0 582-685): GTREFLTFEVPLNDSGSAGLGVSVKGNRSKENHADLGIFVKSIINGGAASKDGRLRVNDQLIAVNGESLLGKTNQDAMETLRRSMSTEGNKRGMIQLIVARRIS

| pKd | Binder |
| --- | --- |
| below the threshold | GSQSQVETEA [FKBP4, Q02790] |
| below the threshold | SRPHTNETSL [MCC, P23508] |

molecular target: TJP2_1, Q9UDY2; assay: holdup assay; parameters: key: below the threshold = too weak to quantify, mostly under pKd 3.1 to 4; details: plain residues with an end cap or a label only (N-terminal biotin on a linker: ado-ado)
Sequence (Q9UDY2 24-128): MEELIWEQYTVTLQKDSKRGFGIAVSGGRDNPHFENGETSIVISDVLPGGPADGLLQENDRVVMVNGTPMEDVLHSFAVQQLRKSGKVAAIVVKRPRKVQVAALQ

| pKd | Binder |
| --- | --- |
| below the threshold | GSQSQVETEA [FKBP4, Q02790] |
| below the threshold | SRPHTNETSL [MCC, P23508] |

molecular target: T8, PARD3B_1, Q8TEW8; assay: holdup assay; parameters: key: below the threshold = too weak to quantify, mostly under pKd 3.1 to 4; details: plain residues with an end cap or a label only (N-terminal biotin on a linker: ado-ado)

| pKd | Binder |
| --- | --- |
| below the threshold | GSQSQVETEA [FKBP4, Q02790] |
| 3.7 | SRPHTNETSL [MCC, P23508] |

molecular target: MAGI1_2, Q96QZ7; assay: holdup assay; parameters: key: below the threshold = too weak to quantify, mostly under pKd 3.1 to 4; details: plain residues with an end cap or a label only (N-terminal biotin on a linker: ado-ado)
Sequence (Q96QZ7 456-580): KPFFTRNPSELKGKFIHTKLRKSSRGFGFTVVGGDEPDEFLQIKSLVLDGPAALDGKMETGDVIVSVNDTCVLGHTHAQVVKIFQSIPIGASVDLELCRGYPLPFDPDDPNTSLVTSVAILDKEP

| pKd | Binder |
| --- | --- |
| below the threshold | GSQSQVETEA [FKBP4, Q02790] |
| 3.63 | SRPHTNETSL [MCC, P23508] |

molecular target: T9, SNTA1, Q13424; assay: holdup assay; parameters: key: below the threshold = too weak to quantify, mostly under pKd 3.1 to 4; details: plain residues with an end cap or a label only (N-terminal biotin on a linker: ado-ado)

| pKd | Binder |
| --- | --- |
| below the threshold | GSQSQVETEA [FKBP4, Q02790] |
| 4.47 | SRPHTNETSL [MCC, P23508] |

molecular target: T10, SIPA1L2, Q9P2F8; assay: holdup assay; parameters: key: below the threshold = too weak to quantify, mostly under pKd 3.1 to 4; details: plain residues with an end cap or a label only (N-terminal biotin on a linker: ado-ado)

| pKd | Binder |
| --- | --- |
| below the threshold | GSQSQVETEA [FKBP4, Q02790] |
| below the threshold | SRPHTNETSL [MCC, P23508] |

molecular target: T11, HTRA3, P83110; assay: holdup assay; parameters: key: below the threshold = too weak to quantify, mostly under pKd 3.1 to 4; details: plain residues with an end cap or a label only (N-terminal biotin on a linker: ado-ado)

| pKd | Binder |
| --- | --- |
| below the threshold | GSQSQVETEA [FKBP4, Q02790] |
| below the threshold | SRPHTNETSL [MCC, P23508] |

molecular target: NHERF4_2, Q86UT5; assay: holdup assay; parameters: key: below the threshold = too weak to quantify, mostly under pKd 3.1 to 4; details: plain residues with an end cap or a label only (N-terminal biotin on a linker: ado-ado)
Sequence (Q86UT5 220-308): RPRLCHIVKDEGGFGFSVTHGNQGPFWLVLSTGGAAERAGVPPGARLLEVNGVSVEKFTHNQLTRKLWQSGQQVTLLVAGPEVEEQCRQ

| pKd | Binder |
| --- | --- |
| below the threshold | GSQSQVETEA [FKBP4, Q02790] |
| below the threshold | SRPHTNETSL [MCC, P23508] |

molecular target: TJP1_2, Q07157; assay: holdup assay; parameters: key: below the threshold = too weak to quantify, mostly under pKd 3.1 to 4; details: plain residues with an end cap or a label only (N-terminal biotin on a linker: ado-ado)
Sequence (Q07157 181-274): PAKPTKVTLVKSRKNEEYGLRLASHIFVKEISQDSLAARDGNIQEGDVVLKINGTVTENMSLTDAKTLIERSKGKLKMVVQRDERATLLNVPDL

| pKd | Binder |
| --- | --- |
| below the threshold | GSQSQVETEA [FKBP4, Q02790] |
| below the threshold | SRPHTNETSL [MCC, P23508] |

molecular target: GRIP2_3, Q9C0E4; assay: holdup assay; parameters: key: below the threshold = too weak to quantify, mostly under pKd 3.1 to 4; details: plain residues with an end cap or a label only (N-terminal biotin on a linker: ado-ado)
Sequence (Q9C0E4 238-339): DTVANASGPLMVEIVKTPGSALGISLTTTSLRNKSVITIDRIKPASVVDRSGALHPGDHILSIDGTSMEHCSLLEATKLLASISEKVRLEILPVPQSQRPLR

| pKd | Binder |
| --- | --- |
| below the threshold | GSQSQVETEA [FKBP4, Q02790] |
| below the threshold | SRPHTNETSL [MCC, P23508] |

molecular target: T12, PDZD7_3, Q9H5P4; assay: holdup assay; parameters: key: below the threshold = too weak to quantify, mostly under pKd 3.1 to 4; details: plain residues with an end cap or a label only (N-terminal biotin on a linker: ado-ado)

| pKd | Binder |
| --- | --- |
| below the threshold | GSQSQVETEA [FKBP4, Q02790] |
| 4.36 | SRPHTNETSL [MCC, P23508] |

molecular target: T13, FRMPD1, Q5SYB0; assay: holdup assay; parameters: key: below the threshold = too weak to quantify, mostly under pKd 3.1 to 4; details: plain residues with an end cap or a label only (N-terminal biotin on a linker: ado-ado)

| pKd | Binder |
| --- | --- |
| below the threshold | GSQSQVETEA [FKBP4, Q02790] |
| below the threshold | SRPHTNETSL [MCC, P23508] |
